The values below come from the supplement of paper PMC9170038.

Data set [1] concerns MS2 coat protein. The data set is described as follows: apparent KD of MS2 coat protein, switch ON state; designed switch direction (-1 OFF switch, 1 ON switch): 1; higher = weaker reporter binding. Conditions: FMN input: 0 or 200 uM; Eterna round: R93 (includes R88 designs). In outline:
(§1)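 SNAP-549-labelled MS2 coat protein was titrated onto designed RNA switches that had been transcribed on-chip from Illumina sequencing clusters. Amounts doubled from 0.7 or 1.5 nM to 3 µM in 100 mM Tris-HCl pH 7.5, 80 mM KCl, 4 mM MgCl2, with constant ligand or without. Apparent KD is the median per design of normalised cluster binding-curve fits.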

The test system of data set [2] is MS2 coat protein. The data set is described as follows: apparent KD of MS2 coat protein, switch OFF state (with FMN for OFF switches, without FMN for ON switches); designed switch direction (-1 OFF switch, 1 ON switch): 1; higher = weaker reporter binding. The following applies: FMN input: 0 or 200 uM; Eterna round: R93 (includes R88 designs). In outline:
as §1

Take “AUAGACAUAGUUCAGGAUAUGGUAAUAGUCACAUGAGGAUCACCCAUGUGCAUUUAUAUGCGCGAUCAGAAGGGAGGUAGAUAUA [Mat - Same state - Malcolm Mod - D117]”: the “apparent KD of MS2 coat protein” value in the data set with MS2 coat protein [1] is 17.7 nM; with MS2 coat protein [2], 16.3 nM.
In the case of “AUAUAUAUAAGGUAGGAUAUCCUAAAGUAAACAUGAGGAUCACCCAUGUAAAGAAAGAAACUCAUGGAGAAGGACCAUAUAUAUA”, the “apparent KD of MS2 coat protein” value with MS2 coat protein [1] was found to be 15.5 nM; in the data set on MS2 coat protein [2] it was 20.2 nM.
Consider “AUAUGAUCAUGUGAGGAUAUCCAUAAUAAAACAUGAGGAUCACCCAUGUAUAGAUACUAAUAAUGGGAGAAGGCACAUGAUCAAU [SS 2 M43]”, for which the “apparent KD of MS2 coat protein” value stood at 19.9 nM in the data set with MS2 coat protein [1] and 24 nM in the data set on MS2 coat protein [2].
Taken in the same sequence, the figures for “AUGGUCAAGUGUGAGGAUAUCCAGGCUCCCACAUGAGGAUCACCCAUGUUUUAAAGAGCGUAAAGGGAGAAGGUACGAACGCCAC [Isorvere]” were 15.4 nM and 21.9 nM.
As to “AUUCCAAAUAGUCAGGAUAUCAGGAGUAAGACAUGAGGAUCACCCAUGUACUUAGUAAAAGUAACUGAGAAGGGACAGGGUGUAA [JR_SS002_Sub406]”, the “apparent KD of MS2 coat protein” value with MS2 coat protein [1] is 30 nM; in the data set with MS2 coat protein [2], 24.2 nM.
Taken in the same sequence, the figures for “AUUUUACAUGAGGAUCACCCAUGUUUUGGUGGAUCAGGAUAUAGAUUGAAUGAGUUUUAGCUAGAAGGGAUAUAUA [JR_SS001_Sub506]” were 111 nM and 110 nM.
Taken in the same sequence, the figures for “CACCCGUGUAUGAAGGAUAUGUAGACCCUGACAUGAGGAUCACCCAUGUAACUGUGGGUCCCAUCGCAGAAGGUCGAGACACGGG [Ribitite]” were 22.4 nM and 180 nM.
Taken in the same sequence, the figures for “CAGCGCUGUCGAGAGGAUAUGCGGUGAUGGACAUGAGGAUCACCCAUGUAAGCGAUAGCAUUACGGCAGAAGGCUCUGCAGCUGC [Riaranzaes]” were 18.7 nM and 69.6 nM.
Turning to “CGAAAGGAGAGAGAGGAUAUCCAAAGGAAAACAUGAGGAUCACCCAUGUAGAAGGUAGGAGAUUGGGAGAAGGCUCAAGACAGAG [salish99-ss2-143(!!!!)]”, the “apparent KD of MS2 coat protein” value amounted to 21.3 nM in the data set on MS2 coat protein [1] and 36.1 nM in the data set on MS2 coat protein [2].
The matching figures for “CGAAAGGAGAGAGAGGAUAUCCAAAGGAAAACAUGAGGAUCACCCAUGUAGAAGGUAGGAGAUUGGGAGAAGGCUCAAGAGAGAA [salish99-ss2-146]”: 19.1 nM and 25 nM.
The matching figures for “CGAAGACAUGAGGAUCACCCAUGUGGGAAUAUGGGAGGAUAUACAAAGACGAGAGUCAGAGUAGAAGGCCUAGGAA [salish99-ss1-104]”: 23.3 nM and 56.6 nM.
The matching figures for “CGCGGGCCCGGGCAGGAUAUCCGGCCUCGGACAUGAGGAUCACCCAUGUGGCCGAAAGGCCGGUGGGAGAAGGGCCCGGGCCCGC”: 20.5 nM and 23.1 nM.
For “CGCUCACAUGAGGAUCACCCAUGUCCUAGGAGGUCAGGAUAUAGCUCGGAUGCGUUGAGGCUAGAAGGGACAGGUG [JR_SS001_Sub606]”, the “apparent KD of MS2 coat protein” value stood at 78.6 nM in the data set with MS2 coat protein [1] and 59.5 nM with MS2 coat protein [2].
Taken in the same sequence, the figures for “CGGAAGGAGAGAGAGGAUAUCCAAAGGAAAACAUGAGGAUCACCCAUGUAGAAGGUAGGAAAUUGGGAGAAGGCUCAACAGAGAG [salish99-ss2-130]” were 19.1 nM and 33.4 nM.
As to “CGGAGACAUGAGGAUCACCCAUGUGAGAAGAGGCGAGGAUAUCGAAAGAAAGAAGAGAAACGAGAAGGCGCGAGAC [salish99-SS1-077]”, the results for the “apparent KD of MS2 coat protein” value in the data set with MS2 coat protein [1] and in the data set on MS2 coat protein [2] were 17.7 nM and 26.7 nM, respectively.
Taken in the same sequence, the figures for “CGGAGACAUGAGGAUCACCCAUGUGAGAAGAGGCGAGGAUAUCGAAAGAAAGAAGAGAAACGAGAAGGCGCGAGGG [salish99-SS1-075]” were 18.3 nM and 27.7 nM.
The matching figures for “CGUCUACAUGAGGAUCACCCAUGUCAAGAGUGGUCAGGAUAUGGUAUUAGAUGAGUAUGGCCAGAAGGGACAUAAG [JR_SS001_Sub715]”: 167 nM and 386 nM.
Taken in the same sequence, the figures for “CGUGAACAUGAGGAUCACCCAUGUAGCGGGAGACAAGGAUAUGGGAGGCGAAAUCGCGGAUCAGAAGGUGUAAGCG [Zace]” were 16.4 nM and 16.5 nM.
On to “CUAAUUGCAUAUUAGGAUAUACACUGGGUGACAUGAGGAUCACCCAUGUAAAAGCACACUCGGUAGUAGAAGGAGUGUGCAAGUC [Iserso]”, for which the “apparent KD of MS2 coat protein” value stood at 36 nM in the data set with MS2 coat protein [1] and 19.1 nM with MS2 coat protein [2].
“CUACAACAUGAGGAUCACCCAUGUCGUAGAAAUCAAGGAUAUGGGUCGGUAACAUGCGUACCAGAAGGUGAGGAAA [Rebicequ]”: the “apparent KD of MS2 coat protein” value in the data set on MS2 coat protein [1] was determined as 29.3 nM; with MS2 coat protein [2], 30.4 nM.
Taken in the same sequence, the figures for “GAAAAACAUGAGGAUCACCCAUGUAAGAUAAACACAGGAUAUGCGAAAAUAAACAAAGAAGCAGAAGGGUGAAGAA [Mat - Same State 1 - Tesla mod - 72]” were 23 nM and 80.3 nM.
The matching figures for “GAAAAACAUGAGGAUCACCCAUGUAGAAAAAUGGGAGGAUAUACAAAGACGAAAGUCAAAGUAGAAGGCCUGAAAG [same state 77% mat/eli mod]”: 24.8 nM and 74.4 nM.
Regarding “GAAAAACAUGAGGAUCACCCAUGUAGAAAUAUGGGAGGAUAUACAAAGACGAAAGUCAAAGUAGAAGGCCUAAAAG [Mat - Mod of Eli]”, the “apparent KD of MS2 coat protein” value in the data set with MS2 coat protein [1] came out at 23.9 nM; in the data set with MS2 coat protein [2], 69.3 nM.
The matching figures for “GAAAAACAUGAGGAUCACCCAUGUAGAAAUAUGGGAGGAUAUACAAAGACGAAAGUCAAAGUAGAAGGCCUAAAAG [Mat - Same State 1 - Rerun of Eli mod - D1]”: 23.9 nM and 69.3 nM.
In the case of “GAAAAACAUGAGGAUCACCCAUGUAGAAAUAUGGGAGGAUAUACAAAGACGAAAGUCAAAGUAGAAGGCCUAAGAG [Garnet 22]”, the “apparent KD of MS2 coat protein” value in the data set with MS2 coat protein [1] is 31.8 nM; in the data set on MS2 coat protein [2], 82.6 nM.
Taken in the same sequence, the figures for “GAAAAACAUGAGGAUCACCCAUGUAGAAAUAUGGGAGGAUAUACGAAGUCGAAAGUCAAAGUAGAAGGCCUAAAAG [Garnet 28]” were 31.3 nM and 108 nM.
Taken in the same sequence, the figures for “GAAAAACAUGAGGAUCACCCAUGUGAAAAUAUGGAAGGAUAUACAAAGACGAAAGUCAAAGUAGAAGGUCUAAAAG [Mat - Same State 1 - Eli mod - D14]” were 15 nM and 22.5 nM.
Taken in the same sequence, the figures for “GAAAAACAUGAGGAUCACCCAUGUGAAAAUAUGGGAGGAUAUACAAGGACGAAAGUCAAGGUAGAAGGCCUAAAAG [Mat - Same State 1 - Eli mod - 27]” were 39.4 nM and 78.8 nM.
Turning to “GAAAAACAUGAGGAUCACCCAUGUGAGAAUAUGGGAGGAUAUACGAGGACGAGAGUCAAGGUAGAAGGCCUAAAAG [Garnet 75]”, the “apparent KD of MS2 coat protein” value in the data set with MS2 coat protein [1] was found to be 40.5 nM; in the data set with MS2 coat protein [2] it was 549 nM.
Taken in the same sequence, the figures for “GAAAAACAUGAGGAUCACCCAUGUGAGAAUAUGGGAGGAUAUUCAAAGACGAGAGUCAAAGAAGAAGGCCUAAAAG [Mat - Same State 1 - Eli mod - 38]” were 29.3 nM and 161 nM.
The matching figures for “GAAAAACAUGAGGAUCACCCAUGUGGAAAUAUGGAAGGAUAUACAAAGACGGAAGUCAAAGUAGAAGGUCUAAAAG [Mat - Same State 1 - Eli mod - D19]”: 23.6 nM and 29.4 nM.
Taken in the same sequence, the figures for “GAAAAACAUGAGGAUCACCCAUGUGUAAACACGGGAGGAUAUACGAAGACGUAAGUCAAAGUAGAAGGCCUAAAAG [Garnet 40]” were 18.9 nM and 60.3 nM.
On to “GAAAUAAAAACACAGGAUAUCCAAAAGAAAACAUGAGGAUCACCCAUGUAAAGAAAAUAAAAAUGGGAGAAGGGUGAAAAUAAAA [Mat - Same State 2 - JL mod - D26]”, for which the “apparent KD of MS2 coat protein” value in the data set on MS2 coat protein [1] was found to be 15.8 nM; in the data set on MS2 coat protein [2], 41.3 nM.
The matching figures for “GAAGACAUAGUUCAGGAUAUAGGAAUAGUCACAUGAGGAUCACCCAUGUGCAUUUAUAUGCGCACUUAGAAGGGAGGUAGUUAUC [SameState2 Malc#23]”: 36 nM and 25 nM.
The matching figures for “GAAGACGUAGGAUAGGAUAUGUGAAUAAUUACAUGAGGAUCACCCAUGUCCAUUUAUAUGGGAACAUAGAAGGGUUUUCGUUAUC [SameState2 Malc#9]”: 341 nM and 281 nM.
The matching figures for “GACUAACAUGAGGAUCACCCAUGUAUUCAAACAUGAGGAUAUAUAACACAUCAUCGACGGAUAGAAGGCAUAGAUA [JR_SS001_Sub1207]”: 81.1 nM and 71.7 nM.
On to “GAGGACCUAGGAUAGGAUAUGUGAAUAAUUACAUGAGGAUCACCCAUGUCCAUUUAUAUGGGAACAUAGAAGGGUUUUGGUUAUC [SameState2 Malc#39]”, for which the “apparent KD of MS2 coat protein” value in the data set with MS2 coat protein [1] was found to be 232 nM; with MS2 coat protein [2], 180 nM.
The matching figures for “GAUCCAACUAGUCAGGAUAUCAGGCGUAAGACAUGAGGAUCACCCAUGUCCUAAGAACAAGUAACUGAGAAGGGACAGGGCGACC [JR_SS002_Sub412]”: 70.5 nM and 74.3 nM.
Taken in the same sequence, the figures for “GCAAAACAUGAGGAUCACCCAUGUGAAAAGAAUGUAGGAUAUGGGCUCAUAAAUAGCAGCCCAGAAGGGCGAAGAA [Onmace]” were 29.6 nM and 26.2 nM.
